Experimental data as given in patent US20210032351A1 (XDCEXPLORER SHANGHAI, published 2021).

Biological target: T1, human EGFRvIII-hFc protein (human, UniProt P00533 25-645)
T1 construct: extracellular domain; made in HEK293 cells, purified on protein A; also called immunogen A; hFc-tagged EGFRvIII protein; not shown: human IgG Fc fragment (hFc) of the pCpC vector
Test: ELISA, plate coated with human EGFRvIII-hFc, HRP secondary antibody, absorbance at 450 nm
Procedure: The purified immunogen A (EGFRvIII-hFc) obtained in example 1 (for the preparation method, see step (I) in example 1) is diluted with PBS to a final concentration of 1.0 μg/mL, and then added to a 96-well ELISA plate at 100 μl/well. The plate is sealed with a plastic film and incubated at 4° C. overnight. The next day, the plate is washed twice with a plate washing solution [PBS+0.01% (v/v) Tween20], and added with a blocking solution [PBS+0.01% (v/v) Tween20+1% (w/w) BSA] for blocking 2 hours at room temperature. […] The plate is incubated for 2 hours at 37° C., and then washed 3 times with the plate washing solution [PBS+0.01% (v/v) Tween20]. The plate is added with an HRP (horseradish peroxidase) labeled secondary antibody (purchased from Sigma), incubated at 37° C. for 2 hours, and then washed 3 times with the plate washing solution [PBS+0.01% (v/v) Tween20]. The plate is added with 100 μl of TMB substrate/well, incubated for 30 minutes at room temperature, and then added with 100 μl of stopping solution (1.0N HCl)/well. A450 nm value is read using an ELISA plate reader (SpectraMax 384plus, purchased from Molecular Device), and the results are shown in FIG. 11 and table 19.

B1: Chimeric antibody 64F1 (antibody, human IgG1, V domains shown)
VH: QVQLQQSGAELARPGASVKMSCKASGYTFSSYTMHWAKQRPGQGLEWIGYINPSSGYTKYNQKFKDKATLTADKSSSTAYMQLSSLTSEDSIVYYCARGGGRGFAYWGQGTLVTVSA
VL: QIVLTQSPAIMSASPGERVTMTCSASSSVSYMYWYQQKPGSSPRLLIYDTSNLASGVPVRFSGSGSGTSYSLTISRVEAEDAATYYCQQWSSYSLTFGAGTKLELK
notes: also called 64F1F8 (chimeric)
- EC50 (read off the curve): ~0.01 nM
